{"source": "paper PMC8277531", "about": "(Cell, 2021)", "binders": {"B1": {"name": "Fab fragment derived from mouse monoclonal IgG 4G10 (Fab, V domains shown)", "VH": "EVQLQQSGAELVRPGASVKLSCTASGFKIKDDYIHWVKQRPEQGLEWIGRIDPANGHTRYAPKFQDKATITADTSSNTAYLQLSSLTSEDTAVYYCTRYNDYDAFYFDYWGQGTTLTVSS", "VL": "DIQMTQTTSSLSASLGDRVTISCRASQDIRNYLNWYQQKPDGTVKLLIYYTSRLHSGVPSRFSGSGSGTDYSLTISNLEQEDIATYFCQQTNTLPWTFGGGTKVEIK"}}, "target": "T1, chicken Scap-3xFLAG (pEZT-cScap-3xFLAG WT) expressed in HEK 293T cells (Gallus gallus)", "T1 chain": "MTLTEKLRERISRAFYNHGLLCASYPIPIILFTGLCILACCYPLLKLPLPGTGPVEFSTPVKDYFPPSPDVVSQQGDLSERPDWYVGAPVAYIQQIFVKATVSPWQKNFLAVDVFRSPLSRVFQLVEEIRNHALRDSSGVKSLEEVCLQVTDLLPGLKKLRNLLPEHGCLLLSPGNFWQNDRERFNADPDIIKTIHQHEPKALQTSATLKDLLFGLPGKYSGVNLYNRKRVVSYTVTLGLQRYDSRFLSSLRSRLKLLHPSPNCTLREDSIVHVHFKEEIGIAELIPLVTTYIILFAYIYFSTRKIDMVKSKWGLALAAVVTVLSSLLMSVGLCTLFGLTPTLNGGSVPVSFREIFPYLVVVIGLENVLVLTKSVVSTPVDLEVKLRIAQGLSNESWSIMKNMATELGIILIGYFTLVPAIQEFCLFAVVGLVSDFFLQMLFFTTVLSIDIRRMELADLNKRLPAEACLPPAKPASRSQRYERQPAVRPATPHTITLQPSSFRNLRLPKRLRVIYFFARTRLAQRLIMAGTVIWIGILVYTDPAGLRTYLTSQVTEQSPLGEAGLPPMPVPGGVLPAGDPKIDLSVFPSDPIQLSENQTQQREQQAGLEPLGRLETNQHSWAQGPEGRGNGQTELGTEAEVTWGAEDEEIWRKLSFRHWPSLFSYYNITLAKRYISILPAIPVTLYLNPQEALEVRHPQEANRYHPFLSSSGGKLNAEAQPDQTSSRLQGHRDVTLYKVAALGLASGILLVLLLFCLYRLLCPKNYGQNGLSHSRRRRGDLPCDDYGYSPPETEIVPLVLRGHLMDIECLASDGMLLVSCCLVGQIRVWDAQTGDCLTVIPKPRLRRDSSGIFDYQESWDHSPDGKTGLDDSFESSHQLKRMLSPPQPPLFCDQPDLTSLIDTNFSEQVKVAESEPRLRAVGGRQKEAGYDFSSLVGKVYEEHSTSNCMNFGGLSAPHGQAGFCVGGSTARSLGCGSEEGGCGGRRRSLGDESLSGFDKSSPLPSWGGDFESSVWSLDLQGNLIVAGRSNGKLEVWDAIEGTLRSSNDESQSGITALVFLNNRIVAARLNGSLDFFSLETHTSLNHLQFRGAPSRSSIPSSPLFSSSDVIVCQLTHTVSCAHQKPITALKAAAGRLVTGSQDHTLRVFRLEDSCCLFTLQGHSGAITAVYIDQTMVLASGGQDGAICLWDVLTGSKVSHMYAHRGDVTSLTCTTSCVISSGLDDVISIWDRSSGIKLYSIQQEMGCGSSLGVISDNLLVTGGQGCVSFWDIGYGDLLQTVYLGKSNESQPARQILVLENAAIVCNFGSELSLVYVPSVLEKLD", "assay": "pull-down"}
{"binder": "B1", "values": [{"measurement": "binding result", "result": "binds"}]}
